Source: patent US20250270289A1, “SEQUENCE-DEFINED POLYMERS WITH ONE OR MORE AZIDES, METHODS OF MAKING, AND METHODS OF USE THEREOF” (Yale University, priority 2021, published 2025)
pEC50, pKd: −log10 of the molar value.

Tests used:
[1] = target: GST-Src SH2 [GST: P08515]; assay: fluorescence polarization, GST-Src SH2 titrated on 10 nM FITC-pTyrEEI, one-site binding model
[2] = target: GST-Src SH2 [GST: P08515]; assay: fluorescence polarization competition; competitor FITC-pTyrEEI on GST-Src SH2
[3] = target: GST-Src SH2 [GST: P08515]; assay: fluorescence polarization competition, EC50 of pnY peptide against that of pTyr peptide

GST-Src SH2 [GST: P08515], sequence (P08515 whole entry): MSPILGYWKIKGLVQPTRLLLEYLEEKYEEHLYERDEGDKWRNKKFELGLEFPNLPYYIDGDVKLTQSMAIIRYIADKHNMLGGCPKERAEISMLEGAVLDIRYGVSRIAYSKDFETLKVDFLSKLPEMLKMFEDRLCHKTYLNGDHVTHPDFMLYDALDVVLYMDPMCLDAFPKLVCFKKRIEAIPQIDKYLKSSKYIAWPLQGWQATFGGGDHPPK

| Substance | pKd [1] | pEC50 [2] | Decrease in binding affinity with SH2 (against pTyr) [3] |
| --- | --- | --- | --- |
| FITC-pTyrEEI (peptide) | 6.55 |  |  |
| pTyrEEI (peptide) |  | 6.13 |  |
| pnYEEI (peptide) |  | 4.89 | 17 fold |
